Positions count from the first letter of the chain named.
Tests used:
Assay in all cases: SPR, antibody captured, C2 as analyte;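 also: biacore at 37 °C, anti-C2 mAbs held by immobilised goat anti-human IgG, C2 alanine or serine mutants injected, double-referenced sensorgrams fitted to a 1:1 kinetic or steady-state model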
[1] = molecular target: T1, human C2 T442A (human, UniProt P06681 21-752)
T1 sequence: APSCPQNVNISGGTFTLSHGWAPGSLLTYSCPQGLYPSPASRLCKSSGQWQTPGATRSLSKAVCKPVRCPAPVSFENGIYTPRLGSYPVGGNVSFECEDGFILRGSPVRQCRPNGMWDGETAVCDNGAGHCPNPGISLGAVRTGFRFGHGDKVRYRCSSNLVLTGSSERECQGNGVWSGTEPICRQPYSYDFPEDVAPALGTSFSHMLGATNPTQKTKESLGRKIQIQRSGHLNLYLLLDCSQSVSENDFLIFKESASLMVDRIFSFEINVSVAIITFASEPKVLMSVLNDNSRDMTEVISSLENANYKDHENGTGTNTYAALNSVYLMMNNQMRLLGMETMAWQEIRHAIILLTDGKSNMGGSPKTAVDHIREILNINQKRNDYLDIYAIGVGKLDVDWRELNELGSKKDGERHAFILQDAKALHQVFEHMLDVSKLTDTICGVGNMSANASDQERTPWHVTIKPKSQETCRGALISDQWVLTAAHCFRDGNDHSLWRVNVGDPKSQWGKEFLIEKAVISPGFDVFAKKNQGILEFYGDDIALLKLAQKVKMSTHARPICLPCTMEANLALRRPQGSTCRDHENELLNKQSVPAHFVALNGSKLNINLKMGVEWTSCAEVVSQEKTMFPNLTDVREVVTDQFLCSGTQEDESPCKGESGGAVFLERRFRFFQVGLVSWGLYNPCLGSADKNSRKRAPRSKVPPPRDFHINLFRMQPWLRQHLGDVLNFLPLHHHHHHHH

[2] = molecular target: T2, human C2 E267A (human, UniProt P06681 21-752)
T2 sequence: T1 sequence with E247A, A422T

[3] = molecular target: T3, human C2 A444S (human, UniProt P06681 21-752)
T3 sequence: T1 sequence with A422T, A424S

[4] = molecular target: T4, human C2 F689A (human, UniProt P06681 21-752)
T4 sequence: T1 sequence with A422T, F669A

B1: RF16-242 (antibody, human IgG4 S228P, lambda, V domains shown)
VH: EVQLLQSGAEVKKPGESLKISCKGSGYSFTSYWIGWVRQMPGKGLEWMGIIYPGDSDTRYSPSFQGQVTISADKSISTAYLQWSSLKASDTAMYYCARRGHYGDYFDYWGQGTLVTVSS
VL: SYELTQPPSVSVSPGQTARITCSGDALPKKYAYWYHQKSGQAPVLVIYEDRRRPSEIPERFSGSSSGTMATLTITGAQVEDEGVYFCYSRDRAGNQRVFGGGTQLTVLG
notes: pH-dependent anti-C2 antibody from a phage display library
[1]
  Kd: 18 nM
[2]
  Kd: 12.1 nM
[3]
  Kd: 22.4 nM
[4]
  Kd: 6.3 nM

Reference: US20220332804A1 (CSL INNOVATION, published 2022)
